Results on two substances are retold here after patent publication US20250042969A1, “ANTIGEN DISCOVERY FOR T CELL RECEPTORS ISOLATED FROM PATIENT TUMORS RECOGNIZING WILD-TYPE ANTIGENS AND POTENT PEPTIDE MIMOTOPES” (The Board of Trustees of the Leland Stanford Junior …, priority 2017, published 2025).

The target of assay [1] is …-HLA-A*02:01 single-chain trimer displayed on yeast (human). As to the kind of experiment: flow cytometry of yeast displaying [..]-HLA-A*02:01, 400 nM DMF5 TCR tetramerized on SA-647 against anti-HA; the panel with SA-647 alone gives 10.80 in the same quadrant. On the technique in general: In flow cytometry, cells or beads pass a laser one at a time.
The target is the same in assay [2]. The assay is described as follows: flow cytometry histogram of yeast displaying … with HLA-A*02:01, '+' (MA2.1 then secondary antibody); the row '-' gives 7.270 in the same gate.
For assay [3] the target is unchanged. The assay is described as follows: flow cytometry histogram of yeast displaying … with HLA-A*02:01, '+' (MA2.1 then secondary antibody); the row '-' gives 6.578 in the same gate.
Assay [4] shares this target. The assay is described as follows: flow cytometry histogram of yeast displaying … with HLA-A*02:01, '+' (MA2.1 then secondary antibody); the row '-' gives 9.655 in the same gate.
The target is the same in assay [5]. The assay is described as follows: flow cytometry histogram of yeast displaying … with HLA-A*02:01, '+' (MA2.1 then secondary antibody); the row '-' gives 6.825 in the same gate.
The target is the same in assay [6]. The assay is described as follows: flow cytometry histogram of yeast displaying … with HLA-A*02:01, '+' (MA2.1 then secondary antibody); the row '-' gives 5.574 in the same gate.
Assay [7] has the same target. As to the kind of experiment: flow cytometry histogram of yeast displaying … with HLA-A*02:01, '+' (MA2.1 then secondary antibody); the row '-' gives 6.542 in the same gate.

On to “DMF5 TCR, soluble, multimerized on streptavidin”, for which the percent of yeast SA-647+ HA-488+ (upper right quadrant) in assay [1] stood at 55.8.
MA2.1 antibody: the percent of yeast in the MA2.1-positive gate in assay [2] amounted to 68.6; in assay [3], 74.2; in assay [4], 73.7; in assay [5] it was 74.2; in assay [6] it was 69; in assay [7] it was 55.5.
